Test results reported in article PMC3282699, “S. pombe Kinesins-8 Promote Both Nucleation and Catastrophe of Microtubules” (PLoS ONE, 2012).
One block for each molecule: values may come before it.

Legend:
Klp6_(440)His (S. pombe) = Klp6_(440)His (S. pombe) (UniProt O59751)
[1] = molecular target: S. pombe tubulin heterodimer (S. pombe), P04688
[2] = molecular target: S. pombe GMPCPP microtubules (S. pombe), P04688
[3] = molecular target: Taxol stabilised pig brain microtubules (pig) (UniProt P02550)
[4] = molecular target: S. pombe single isoform (α1β) tubulin heterodimer (S. pombe) (UniProt P04688); test: SEC; 15 µM tubulin with 10.7 µM dimeric Klp6_(440)His incubated at 4°C for 30 min in 80 mM PIPES, 2.5 mM MgCl2, 1 mM EDTA, 1.5 mM GMPCPP, 1 mM DTT pH 6.9; Superose-12 at 4°C; fractions on SDS-PAGE, fluorescent stain quantified
[5] = molecular target: the molecule itself; test: SEC; Superose-12 HR 10/300 GL at 4°C, 0.5 ml/min, 100 mM PIPES, 200 mM NaCl, 1 mM MgCl2, 2 mM EDTA, pH 6.9; elution compared with Ovalbumin (43 kDa) and Bovine Serum Albumin (67 kDa)
Klp5FLGST = molecular target: T1, Klp5FLGST (S. pombe, UniProt O14343 1-883); test: pull-down; co-expressed in E. coli; sequential affinity purification from the bacterial lysate by the His tag (Ni column) and then the GST tag (eluted with 10 mM glutathione); SDS-PAGE, densitometry; settings: partners not purified
T1 construct: Klp5, kinesin-8 of S. pombe, amino acids 1-883; it was only obtained co-expressed with Klp6FLHis; The cloning of this plasmid is not described in the methods; also called full-length Klp5; not shown: GST, C-terminal, kept
T1 sequence (looked up): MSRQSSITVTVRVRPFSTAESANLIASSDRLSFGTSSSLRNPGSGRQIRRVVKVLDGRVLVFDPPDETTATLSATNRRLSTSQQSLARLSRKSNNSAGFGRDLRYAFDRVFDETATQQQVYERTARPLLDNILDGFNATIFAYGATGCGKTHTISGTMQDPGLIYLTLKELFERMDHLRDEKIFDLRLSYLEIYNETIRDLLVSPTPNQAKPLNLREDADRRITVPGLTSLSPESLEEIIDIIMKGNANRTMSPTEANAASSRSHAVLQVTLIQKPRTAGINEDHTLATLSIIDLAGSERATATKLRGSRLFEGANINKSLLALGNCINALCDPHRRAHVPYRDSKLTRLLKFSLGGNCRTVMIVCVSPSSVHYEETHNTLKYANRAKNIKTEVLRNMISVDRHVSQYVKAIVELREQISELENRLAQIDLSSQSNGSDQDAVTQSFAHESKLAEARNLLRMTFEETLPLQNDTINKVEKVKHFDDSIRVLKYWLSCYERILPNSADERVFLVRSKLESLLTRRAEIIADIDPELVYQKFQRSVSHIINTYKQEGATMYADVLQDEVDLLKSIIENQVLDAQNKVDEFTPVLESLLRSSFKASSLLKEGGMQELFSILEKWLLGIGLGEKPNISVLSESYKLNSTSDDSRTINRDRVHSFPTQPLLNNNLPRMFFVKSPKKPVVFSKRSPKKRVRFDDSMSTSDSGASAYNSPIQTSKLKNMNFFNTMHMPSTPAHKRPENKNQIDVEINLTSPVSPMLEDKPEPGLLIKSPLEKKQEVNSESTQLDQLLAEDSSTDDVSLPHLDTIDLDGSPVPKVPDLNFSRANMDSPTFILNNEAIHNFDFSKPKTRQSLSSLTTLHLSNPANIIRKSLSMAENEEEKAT

[6] = molecular target: pig brain tubulin heterodimer (pig) (UniProt P02550)
[7] = molecular target: S. pombe GMPCPP microtubules (S. pombe) (UniProt P04688)
[8] = molecular target: S. pombe tubulin heterodimer (S. pombe) (UniProt P04688)
Chain of S. pombe tubulin heterodimer (S. pombe) (P04688 whole entry, chain 1 of 2): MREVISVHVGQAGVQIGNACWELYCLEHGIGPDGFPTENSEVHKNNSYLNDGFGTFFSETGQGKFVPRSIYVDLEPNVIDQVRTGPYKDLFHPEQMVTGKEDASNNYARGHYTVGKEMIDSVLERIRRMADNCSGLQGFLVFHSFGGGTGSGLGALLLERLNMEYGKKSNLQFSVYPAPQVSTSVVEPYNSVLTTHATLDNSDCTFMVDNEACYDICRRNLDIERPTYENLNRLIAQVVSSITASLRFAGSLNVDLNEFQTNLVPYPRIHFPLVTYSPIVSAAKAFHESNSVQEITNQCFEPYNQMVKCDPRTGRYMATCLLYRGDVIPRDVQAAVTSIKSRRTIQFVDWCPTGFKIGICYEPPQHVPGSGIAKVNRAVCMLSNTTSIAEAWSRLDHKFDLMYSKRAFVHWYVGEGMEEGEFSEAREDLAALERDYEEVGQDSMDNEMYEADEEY
Chain of S. pombe tubulin heterodimer (S. pombe) (P05219 whole entry, chain 2 of 2, further chain): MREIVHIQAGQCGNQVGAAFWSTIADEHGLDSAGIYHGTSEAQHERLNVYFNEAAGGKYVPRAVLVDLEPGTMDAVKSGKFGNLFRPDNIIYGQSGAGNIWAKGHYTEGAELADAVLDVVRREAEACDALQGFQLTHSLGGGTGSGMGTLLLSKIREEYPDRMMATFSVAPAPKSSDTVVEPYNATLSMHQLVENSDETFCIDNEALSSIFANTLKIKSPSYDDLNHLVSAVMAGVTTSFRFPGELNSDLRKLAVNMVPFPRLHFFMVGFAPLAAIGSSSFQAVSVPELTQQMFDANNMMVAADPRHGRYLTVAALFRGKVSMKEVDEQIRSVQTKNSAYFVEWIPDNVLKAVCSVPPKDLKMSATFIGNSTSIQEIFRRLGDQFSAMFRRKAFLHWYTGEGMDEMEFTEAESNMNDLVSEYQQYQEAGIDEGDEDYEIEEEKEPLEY

Chain of S. pombe tubulin heterodimer (S. pombe), P04688 (P04688 whole entry, chain 1 of 2): as the sequence (P04688 whole entry, chain 1 of 2) above
Chain of S. pombe tubulin heterodimer (S. pombe), P04688 (P05219 whole entry, chain 2 of 2, further chain): as the sequence (P05219 whole entry, chain 2 of 2, further chain) above
Chain of pig brain tubulin heterodimer (pig) (P02550 whole entry, chain 1 of 2): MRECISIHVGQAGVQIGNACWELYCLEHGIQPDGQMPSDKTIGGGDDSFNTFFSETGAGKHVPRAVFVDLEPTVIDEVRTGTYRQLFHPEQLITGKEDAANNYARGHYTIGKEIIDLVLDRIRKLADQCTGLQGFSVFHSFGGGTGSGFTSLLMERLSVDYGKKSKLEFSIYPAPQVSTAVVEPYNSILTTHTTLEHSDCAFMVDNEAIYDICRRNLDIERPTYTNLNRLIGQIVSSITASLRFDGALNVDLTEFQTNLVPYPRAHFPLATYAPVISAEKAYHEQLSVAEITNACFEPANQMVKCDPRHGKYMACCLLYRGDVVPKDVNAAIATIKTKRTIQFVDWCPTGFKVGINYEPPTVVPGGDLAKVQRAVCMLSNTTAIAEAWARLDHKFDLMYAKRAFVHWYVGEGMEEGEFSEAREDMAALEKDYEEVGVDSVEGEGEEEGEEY
Chain of pig brain tubulin heterodimer (pig) (Q767L7 whole entry, chain 2 of 2, further chain): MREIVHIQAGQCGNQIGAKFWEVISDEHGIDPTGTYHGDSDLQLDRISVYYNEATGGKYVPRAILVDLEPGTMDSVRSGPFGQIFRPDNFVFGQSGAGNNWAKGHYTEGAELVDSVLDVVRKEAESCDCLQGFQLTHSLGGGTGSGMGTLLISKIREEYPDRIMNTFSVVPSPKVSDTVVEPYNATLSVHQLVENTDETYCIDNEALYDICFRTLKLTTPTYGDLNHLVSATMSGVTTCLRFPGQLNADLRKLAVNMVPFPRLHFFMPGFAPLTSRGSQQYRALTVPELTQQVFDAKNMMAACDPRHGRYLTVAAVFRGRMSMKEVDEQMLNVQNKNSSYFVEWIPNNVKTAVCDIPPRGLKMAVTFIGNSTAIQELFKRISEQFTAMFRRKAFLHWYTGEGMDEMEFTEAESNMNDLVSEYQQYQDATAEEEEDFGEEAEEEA

Ki of tubulin heterodimers for inhibition of the Klp6 (440)His ATPase stimulated by 73 nM Taxol stabilised pig brain microtubules (blocked pair: m3 with m12) (Klp6_(440)His (S. pombe)): 121 nM
Molecule: S. pombe tubulin heterodimer (from UniProt P04688 1-455; P05219 1-448) (complex)

Ki of tubulin heterodimers for inhibition of the Klp6 (440)His ATPase stimulated by 73 nM Taxol stabilised pig brain microtubules (blocked pair: m3 with m12) (Klp6_(440)His (S. pombe)): 175 nM
Molecule: pig brain tubulin heterodimer (from UniProt P02550 1-451; Q767L7 1-444) (complex)

Km of the tubulin heterodimer stimulated ATPase (S. pombe tubulin), linked assay at 25°C [1]: 0.373 µM
Km of the microtubule stimulated ATPase (S. pombe GMPCPP microtubules), linked assay at 25°C [2]: 0.056 µM
B1: Klp6_(440)His, O59751 1-440 (domain or fragment)
chain: MKEGSSISVAVRVRPFTEREKGLLAETPKSKEFLGDGSLAVSNTSSNTFCTNGIRKIVRVLDDNVLIFDPPEENPLAKVQKSLLPAGKRFRDVRYAFDRLFGEEASQEDVYKGTTEPLLDSVLQGYNATVFAYGATGCGKTHTISGRPDDPGIIFLTMRALLDRVEGLKRTMNVDISVSYLEIYNEKIRDLLVQDPLSMEKPKSLNICEDAEQNVSVPGLSYFTPTNLEEVMEIIIRGNSNRTMSPTEANAVSSRSHAVLQIYITQTPKSGEKQEESESQNSHKVRSVFSFIDLAGSERASATKNRGKRLVEGANINRSLLALGNCINSLCEPRRRQHVPYRDSKLTRLLKFSLGGNCRTCMIVCISPSSEHYDETHNTLKYGNRAKNIKTKVSRNVVSVDRHVSEYVRTIYELRQKVSILQKRIAEESKQLALNKEVRK

Km of the microtubule stimulated ATPase (Taxol stabilised pig brain microtubules), linked assay at 25°C [3]: 0.085 µM
stoichiometry N (tubulin heterodimer per kinesin head) [4]: 1
B2: Klp6_(440)His (domain or fragment, S. pombe, UniProt O59751 1-440, looked up)
chain: MKEGSSISVAVRVRPFTEREKGLLAETPKSKEFLGDGSLAVSNTSSNTFCTNGIRKIVRVLDDNVLIFDPPEENPLAKVQKSLLPAGKRFRDVRYAFDRLFGEEASQEDVYKGTTEPLLDSVLQGYNATVFAYGATGCGKTHTISGRPDDPGIIFLTMRALLDRVEGLKRTMNVDISVSYLEIYNEKIRDLLVQDPLSMEKPKSLNICEDAEQNVSVPGLSYFTPTNLEEVMEIIIRGNSNRTMSPTEANAVSSRSHAVLQIYITQTPKSGEKQEESESQNSHKVRSVFSFIDLAGSERASATKNRGKRLVEGANINRSLLALGNCINSLCEPRRRQHVPYRDSKLTRLLKFSLGGNCRTCMIVCISPSSEHYDETHNTLKYGNRAKNIKTKVSRNVVSVDRHVSEYVRTIYELRQKVSILQKRIAEESKQLALNKEVRK
notes: Klp6 of S. pombe, amino acids 1-440: motor domain and complete putative coiled-coil domain; Homodimer by Superose 12 gel filtration; also called Klp6(aa1-440)/GlyGly/6xHis tag; Klp440His; source: E. coli Rosetta 2 (DE3), purified (HisTrap); not shown: His6 (after a GlyGly linker), C-terminal, kept
stoichiometry N [5]: 2

molar ratio of Klp6FLHis : Klp5FLGST in the sequentially purified fraction (Klp5FLGST): 3.2 Klp6FLHis per Klp5FLGST
B3: Klp6FLHis (natural protein, S. pombe, UniProt O59751 1-784, looked up)
chain: MKEGSSISVAVRVRPFTEREKGLLAETPKSKEFLGDGSLAVSNTSSNTFCTNGIRKIVRVLDDNVLIFDPPEENPLAKVQKSLLPAGKRFRDVRYAFDRLFGEEASQEDVYKGTTEPLLDSVLQGYNATVFAYGATGCGKTHTISGRPDDPGIIFLTMRALLDRVEGLKRTMNVDISVSYLEIYNEKIRDLLVQDPLSMEKPKSLNICEDAEQNVSVPGLSYFTPTNLEEVMEIIIRGNSNRTMSPTEANAVSSRSHAVLQIYITQTPKSGEKQEESESQNSHKVRSVFSFIDLAGSERASATKNRGKRLVEGANINRSLLALGNCINSLCEPRRRQHVPYRDSKLTRLLKFSLGGNCRTCMIVCISPSSEHYDETHNTLKYGNRAKNIKTKVSRNVVSVDRHVSEYVRTIYELRQKVSILQKRIAEESKQLALNKEVRKISSREIKMLDARSMLKNSFDGSRDLQKSLIEHVRTLRRIEDEITLTKMWISIAKESDAMSGHNIKSVETRLAKLYDQRSLITAKVNPEEICKTFQNSISHIVSSFKGEGADMYADMLQDDVDLLKSIIENQILDAKHESETFSSTSRKLIQNLFLLFPLLPGNAIDVNESLARAFDQLVGIVPSEPTIQVPNLIEKGKAPLLSMFEIPRSPSRFKARSPSKAARVLKKPLKKRVRFSEVPTTSSVPPVEIKNKDSKPKVEKSLDKHNMNNDRSFLVPSRDARNSLTSLSLHSNVAKNKSSHSSKWPTHTLSPIITTALKQPVRRISLVSQPLQKTGGTENTPNA
notes: Klp6, kinesin-8 of S. pombe, amino acids 1-784; also called full-length Klp6; Klp6(aa1-784)/GlyGly/6xHis tag; not shown: His6 (after a GlyGly linker), C-terminal, kept

Km of the microtubule stimulated ATPase (Taxol stabilised pig brain microtubules), linked assay at 25°C [3]: 0.0278 µM
B4: Klp5_(436)GST (domain or fragment)
chain: MSRQSSITVTVRVRPFSTAESANLIASSDRLSFGTSSSLRNPGSGRQIRRVVKVLDGRVLVFDPPDETTATLSATNRRLSTSQQSLARLSRKSNNSAGFGRDLRYAFDRVFDETATQQQVYERTARPLLDNILDGFNATIFAYGATGCGKTHTISGTMQDPGLIYLTLKELFERMDHLRDEKIFDLRLSYLEIYNETIRDLLVSPTPNQAKPLNLREDADRRITVPGLTSLSPESLEEIIDIIMKGNANRTMSPTEANAASSRSHAVLQVTLIQKPRTAGINEDHTLATLSIIDLAGSERATATKLRGSRLFEGANINKSLLALGNCINALCDPHRRAHVPYRDSKLTRLLKFSLGGNCRTVMIVCVSPSSVHYEETHNTLKYANRAKNIKTEVLRNMISVDRHVSQYVKAIVELREQISELENRLAQIDLSSQSN

Km of the microtubule stimulated ATPase (Taxol stabilised pig brain microtubules), linked assay at 25°C [3]: 0.045 µM
Km of the tubulin heterodimer stimulated ATPase (pig brain tubulin), linked assay at 25°C [6]: 0.427 µM
Km of the microtubule stimulated ATPase (S. pombe GMPCPP microtubules), linked assay at 25°C [7]: 0.05 µM
Km of the tubulin heterodimer stimulated ATPase (S. pombe tubulin), linked assay at 25°C [8]: 0.336 µM
B5: Klp5_(436) (domain or fragment)
chain: MSRQSSITVTVRVRPFSTAESANLIASSDRLSFGTSSSLRNPGSGRQIRRVVKVLDGRVLVFDPPDETTATLSATNRRLSTSQQSLARLSRKSNNSAGFGRDLRYAFDRVFDETATQQQVYERTARPLLDNILDGFNATIFAYGATGCGKTHTISGTMQDPGLIYLTLKELFERMDHLRDEKIFDLRLSYLEIYNETIRDLLVSPTPNQAKPLNLREDADRRITVPGLTSLSPESLEEIIDIIMKGNANRTMSPTEANAASSRSHAVLQVTLIQKPRTAGINEDHTLATLSIIDLAGSERATATKLRGSRLFEGANINKSLLALGNCINALCDPHRRAHVPYRDSKLTRLLKFSLGGNCRTVMIVCVSPSSVHYEETHNTLKYANRAKNIKTEVLRNMISVDRHVSQYVKAIVELREQISELENRLAQIDLSSQSN

Km of the tubulin heterodimer stimulated ATPase (S. pombe tubulin), linked assay at 25°C [1]: 0.108 µM
Km of the microtubule stimulated ATPase (S. pombe GMPCPP microtubules), linked assay at 25°C [2]: 0.045 µM
B6: Klp5_(436)GST, O14343 1-436 (domain or fragment)
chain: MSRQSSITVTVRVRPFSTAESANLIASSDRLSFGTSSSLRNPGSGRQIRRVVKVLDGRVLVFDPPDETTATLSATNRRLSTSQQSLARLSRKSNNSAGFGRDLRYAFDRVFDETATQQQVYERTARPLLDNILDGFNATIFAYGATGCGKTHTISGTMQDPGLIYLTLKELFERMDHLRDEKIFDLRLSYLEIYNETIRDLLVSPTPNQAKPLNLREDADRRITVPGLTSLSPESLEEIIDIIMKGNANRTMSPTEANAASSRSHAVLQVTLIQKPRTAGINEDHTLATLSIIDLAGSERATATKLRGSRLFEGANINKSLLALGNCINALCDPHRRAHVPYRDSKLTRLLKFSLGGNCRTVMIVCVSPSSVHYEETHNTLKYANRAKNIKTEVLRNMISVDRHVSQYVKAIVELREQISELENRLAQIDLSSQSN
